The assay has as its target T1, RSV M2 protein peptide on H-2Kd (mouse).
T1 peptide: SYIGSINNI
As to the kind of experiment: in vitro CTL assay; CB6F1 splenocyte targets loaded with graded M2 peptide, E:T ratio of 50; EC50 from a 4-parameter non-linear fit; full-length, on cells.

From paper PMC4045939 (2014) come the findings set out here.

B1: TRBV13-1 (TCR)
alpha TRAV12-2*01 CDR3: CALRNNNNAPRF
beta TRBV13-1*02 CDR3: CASSDGGKEVFF
Turning to B1, the EC50 of peptide stood at 0.0571 nM.

B2: TRBV13-2 (TCR)
alpha TRAV7-3*01 CDR3: CAVNSGYNKLTF
beta TRBV13-2*01 CDR3: CASGAGTGYAEQFF
On to B2, for which the EC50 of peptide turned out to be 0.243 nM.
